Results taken from publication PMC4039082 (Science (New York, N.Y.), 2013).

T1: Tfa1 subunit of TFIIE (S. cerevisiae, UniProt P36100 1-482)
T1 sequence (looked up): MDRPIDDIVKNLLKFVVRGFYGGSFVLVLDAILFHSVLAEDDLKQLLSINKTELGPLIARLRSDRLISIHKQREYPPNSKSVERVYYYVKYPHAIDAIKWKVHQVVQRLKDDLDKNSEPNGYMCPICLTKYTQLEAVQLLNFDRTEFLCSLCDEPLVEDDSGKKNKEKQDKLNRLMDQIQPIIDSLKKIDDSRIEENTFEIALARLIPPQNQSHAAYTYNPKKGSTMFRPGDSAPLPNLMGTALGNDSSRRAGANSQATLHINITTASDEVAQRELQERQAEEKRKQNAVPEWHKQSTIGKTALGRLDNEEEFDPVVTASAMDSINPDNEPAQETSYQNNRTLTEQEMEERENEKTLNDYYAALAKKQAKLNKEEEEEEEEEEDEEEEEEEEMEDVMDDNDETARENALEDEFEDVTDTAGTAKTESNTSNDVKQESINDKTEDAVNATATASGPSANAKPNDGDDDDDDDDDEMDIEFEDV

B1: Toa2 subunit of TFIIA (natural protein, S. cerevisiae, UniProt P32774 1-122, looked up)
chain: MAVPGYYELYRRSTIGNSLVDALDTLISDGRIEASLAMRVLETFDKVVAETLKDNTQSKLTVKGNLDTYGFCDDVWTFIVKNCQVTVEDSHRDASQNGSGDSQSVISVDKLRIVACNSKKSE
B2: TFIIB (natural protein, S. cerevisiae, UniProt P29055 1-345, looked up)
chain: MMTRESIDKRAGRRGPNLNIVLTCPECKVYPPKIVERFSEGDVVCALCGLVLSDKLVDTRSEWRTFSNDDHNGDDPSRVGEASNPLLDGNNLSTRIGKGETTDMRFTKELNKAQGKNVMDKKDNEVQAAFAKITMLCDAAELPKIVKDCAKEAYKLCHDEKTLKGKSMESIMAASILIGCRRAEVARTFKEIQSLIHVKTKEFGKTLNIMKNILRGKSEDGFLKIDTDNMSGAQNLTYIPRFCSHLGLPMQVTTSAEYTAKKCKEIKEIAGKSPITIAVVSIYLNILLFQIPITAAKVGQTLQVTEGTIKSGYKILYEHRDKLVDPQLIANGVVSLDNLPGVEKK
B3: Tfa2 subunit of TFIIE (natural protein, S. cerevisiae, UniProt P36145 1-328, looked up)
chain: MSKNRDPLLANLNAFKSKVKSAPVIAPAKVGQKKTNDTVITIDGNTRKRTASERAQENTLNSAKNPVLVDIKKEAGSNSSNAISLDDDDDDEDFGSSPSKKVRPGSIAAAALQANQTDISKSHDSSKLLWATEYIQKKGKPVLVNELLDYLSMKKDDKVIELLKKLDRIEFDPKKGTFKYLSTYDVHSPSELLKLLRSQVTFKGISCKDLKDGWPQCDETINQLEEDSKILVLRTKKDKTPRYVWYNSGGNLKCIDEEFVKMWENVQLPQFAELPRKLQDLGLKPASVDPATIKRQTKRVEVKKKRQRKGKITNTHMTGILKDYSHRV
B4: Tfg1 subunit of TFIIF (natural protein, S. cerevisiae, UniProt P41895 1-735, looked up)
chain: MSRRNPPGSRNGGGPTNASPFIKRDRMRRNFLRMRMGQNGSNSSSPGVPNGDNSRGSLVKKDDPEYAEEREKMLLQIGVEADAGRSNVKVKDEDPNEYNEFPLRAIPKEDLENMRTHLLKFQSKKKINPVTDFHLPVRLHRKDTRNLQFQLTRAEIVQRQKEISEYKKKAEQERSTPNSGGMNKSGTVSLNNTVKDGSQTPTVDSVTKDNTANGVNSSIPTVTGSSVPPASPTTVSAVESNGLSNGSTSAANGLDGNASTANLANGRPLVTKLEDAGPAEDPTKVGMVKYDGKEVTNEPEFEEGTMDPLADVAPDGGGRAKRGNLRRKTRQLKVLDENAKKLRFEEFYPWVMEDFDGYNTWVGSYEAGNSDSYVLLSVEDDGSFTMIPADKVYKFTARNKYATLTIDEAEKRMDKKSGEVPRWLMKHLDNIGTTTTRYDRTRRKLKAVADQQAMDEDDRDDNSEVELDYDEEFADDEEAPIIDGNEQENKESEQRIKKEMLQANAMGLRDEEAPSENEEDELFGEKKIDEDGERIKKALQKTELAALYSSDENEINPYLSESDIENKENESPVKKEEDSDTLSKSKRSSPKKQQKKATNAHVHKEPTLRVKSIKNCVIILKGDKKILKSFPEGEWNPQTTKAVDSSNNASNTVPSPIKQEEGLNSTVAEREETPAPTITEKDIIEAIGDGKVNIKEFGKFIRRKYPGAENKKLMFAIVKKLCRKVGNDHMELKKE
B5: Tfg2 subunit of TFIIF (natural protein, S. cerevisiae, UniProt P41896 1-400, looked up)
chain: MSSGSAGAPALSNNSTNSVAKEKSGNISGDEYLSQEEEVFDGNDIENNETKVYEESLDLDLERSNRQVWLVRLPMFLAEKWRDRNNLHGQELGKIRINKDGSKITLLLNENDNDSIPHEYDLELTKKVVENEYVFTEQNLKKYQQRKKELEADPEKQRQAYLKKQEREEELKKKQQQQKRRNNRKKFNHRVMTDRDGRDRYIPYVKTIPKKTAIVGTVCHECQVMPSMNDPNYHKIVEQRRNIVKLNNKERITTLDETVGVTMSHTGMSMRSDNSNFLKVGREKAKSNIKSIRMPKKEILDYLFKLFDEYDYWSLKGLKERTRQPEAHLKECLDKVATLVKKGPYAFKYTLRPEYKKLKEEERKATLGELADEQTGSAGDNAQGDAEADLEDEIEMEDVV
B6: Ssl1 subunit of core TFIIH (natural protein, S. cerevisiae, UniProt Q04673 1-461, looked up)
chain: MAPVVISESEEDEDRVAITRRTKRQVHFDGEGDDRVDQQQQQHSSSHRDRDKHVQRKKKKRLSNRNLQGSNGGYAWEDEIKRSWDLVKVDDEGDMASLVASIVEARKKRTAKKNITPYQRGIIRSLILTLDCSEAMLEKDLRPNRHAMIIQYAIDFVHEFFDQNPISQMGIIIMRNGLAQLVSQVSGNPQDHIDALKSIRKQEPKGNPSLQNALEMARGLLLPVPAHCTREVLIVFGSLSTTDPGDIHQTIDSLVSEKIRVKVLGLSAQVAICKELCKATNYGDESFYKILLDETHLKELFNEAVTPLPVNKINKGFTLVKMGFPTRIFEDTPTFCSCHSKLVYGGYFCPNCHSKVCSLPTVCPCCDLMLILSTHLARSYHHLMPLKTFAEVPTTEKFRSEDCFSCQSRFPILKNHKNGKLLTSSRYRCEDCKQEFCVDCDVFIHEILHNCPGCESKPVIT
B7: Ssl2 helicase subunit of TFIIH (natural protein, S. cerevisiae, UniProt Q00578 1-843, looked up)
chain: MTDVEGYQPKSKGKIFPDMGESFFSSDEDSPATDAEIDENYDDNRETSEGRGERDTGAMVTGLKKPRKKTKSSRHTAADSSMNQMDAKDKALLQDTNSDIPADFVPDSVSGMFRSHDFSYLRLRPDHASRPLWISPSDGRIILESFSPLAEQAQDFLVTIAEPISRPSHIHEYKITAYSLYAAVSVGLETDDIISVLDRLSKVPVAESIINFIKGATISYGKVKLVIKHNRYFVETTQADILQMLLNDSVIGPLRIDSDHQVQPPEDVLQQQLQQTAGKPATNVNPNDVEAVFSAVIGGDNEREEEDDDIDAVHSFEIANESVEVVKKRCQEIDYPVLEEYDFRNDHRNPDLDIDLKPSTQIRPYQEKSLSKMFGNGRARSGIIVLPCGAGKTLVGITAACTIKKSVIVLCTSSVSVMQWRQQFLQWCTLQPENCAVFTSDNKEMFQTESGLVVSTYSMVANTRNRSHDSQKVMDFLTGREWGFIILDEVHVVPAAMFRRVVSTIAAHAKLGLTATLVREDDKIGDLNFLIGPKLYEANWMELSQKGHIANVQCAEVWCPMTAEFYQEYLRETARKRMLLYIMNPTKFQACQFLIQYHERRGDKIIVFSDNVYALQEYALKMGKPFIYGSTPQQERMNILQNFQYNDQINTIFLSKVGDTSIDLPEATCLIQISSHYGSRRQEAQRLGRILRAKRRNDEGFNAFFYSLVSKDTQEMYYSTKRQAFLVDQGYAFKVITHLHGMENIPNLAYASPRERRELLQEVLLKNEEAAGIEVGDDADNSVGRGSNGHKRFKSKAVRGEGSLSGLAGGEDMAYMEYSTNKNKELKEHHPLIRKMYYKNLKK

Experiments:
Test in all cases: cross-linking
[1] = target: B5
[2] = target: T1, Tfa1 subunit of TFIIE
[3] = target: Rpb2 subunit of pol II (S. cerevisiae, UniProt P08518 1-1224)
[4] = target: B7
[5] = target: Rpb1 subunit of RNA polymerase II (S. cerevisiae, UniProt P04050 1-1733)
Chain of Rpb1 subunit of RNA polymerase II (P04050 whole entry): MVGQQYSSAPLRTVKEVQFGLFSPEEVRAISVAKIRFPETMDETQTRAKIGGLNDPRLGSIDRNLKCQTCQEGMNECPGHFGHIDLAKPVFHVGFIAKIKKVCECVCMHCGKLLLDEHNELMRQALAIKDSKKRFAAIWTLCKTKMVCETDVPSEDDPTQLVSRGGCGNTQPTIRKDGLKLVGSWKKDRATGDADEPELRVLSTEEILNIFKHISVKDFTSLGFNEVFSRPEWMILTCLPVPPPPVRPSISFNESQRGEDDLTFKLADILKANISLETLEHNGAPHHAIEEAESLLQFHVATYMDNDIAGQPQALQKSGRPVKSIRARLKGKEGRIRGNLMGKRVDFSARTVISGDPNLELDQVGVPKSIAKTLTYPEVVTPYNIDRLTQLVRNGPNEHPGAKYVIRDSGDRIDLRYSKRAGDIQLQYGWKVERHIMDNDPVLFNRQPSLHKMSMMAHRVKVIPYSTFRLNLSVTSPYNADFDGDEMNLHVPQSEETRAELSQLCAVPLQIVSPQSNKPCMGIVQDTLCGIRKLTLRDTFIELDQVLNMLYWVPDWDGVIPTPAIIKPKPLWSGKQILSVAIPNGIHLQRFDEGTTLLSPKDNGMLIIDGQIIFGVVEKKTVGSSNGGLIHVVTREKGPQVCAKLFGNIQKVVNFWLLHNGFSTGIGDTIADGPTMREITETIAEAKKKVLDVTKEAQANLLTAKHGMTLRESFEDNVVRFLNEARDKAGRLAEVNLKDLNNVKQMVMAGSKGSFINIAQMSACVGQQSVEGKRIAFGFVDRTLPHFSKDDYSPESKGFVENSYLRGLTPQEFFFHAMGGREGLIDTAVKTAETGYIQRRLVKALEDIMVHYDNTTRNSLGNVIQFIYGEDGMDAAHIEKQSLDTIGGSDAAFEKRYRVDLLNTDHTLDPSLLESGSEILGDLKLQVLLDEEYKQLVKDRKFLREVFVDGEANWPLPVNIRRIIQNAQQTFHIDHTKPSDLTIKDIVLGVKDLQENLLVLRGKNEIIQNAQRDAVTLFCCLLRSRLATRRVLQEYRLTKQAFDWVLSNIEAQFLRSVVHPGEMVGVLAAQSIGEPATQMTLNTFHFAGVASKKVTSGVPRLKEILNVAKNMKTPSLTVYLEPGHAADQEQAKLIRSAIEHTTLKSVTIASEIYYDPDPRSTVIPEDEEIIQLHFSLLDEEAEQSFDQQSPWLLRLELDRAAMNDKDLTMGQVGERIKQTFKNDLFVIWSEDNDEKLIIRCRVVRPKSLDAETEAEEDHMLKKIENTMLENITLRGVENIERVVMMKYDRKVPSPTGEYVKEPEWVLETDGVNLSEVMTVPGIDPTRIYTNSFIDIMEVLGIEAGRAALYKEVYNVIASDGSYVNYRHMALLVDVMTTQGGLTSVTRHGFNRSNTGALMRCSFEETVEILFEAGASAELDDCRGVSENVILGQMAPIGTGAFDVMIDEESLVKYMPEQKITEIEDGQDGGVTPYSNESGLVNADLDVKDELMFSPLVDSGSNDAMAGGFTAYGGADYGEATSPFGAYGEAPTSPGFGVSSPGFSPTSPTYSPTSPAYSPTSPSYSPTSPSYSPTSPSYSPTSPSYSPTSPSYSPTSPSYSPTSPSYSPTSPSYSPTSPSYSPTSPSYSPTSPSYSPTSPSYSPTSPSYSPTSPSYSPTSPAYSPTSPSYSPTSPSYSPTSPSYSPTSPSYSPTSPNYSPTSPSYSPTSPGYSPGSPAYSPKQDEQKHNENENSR

Chain of Rpb2 subunit of pol II (P08518 whole entry): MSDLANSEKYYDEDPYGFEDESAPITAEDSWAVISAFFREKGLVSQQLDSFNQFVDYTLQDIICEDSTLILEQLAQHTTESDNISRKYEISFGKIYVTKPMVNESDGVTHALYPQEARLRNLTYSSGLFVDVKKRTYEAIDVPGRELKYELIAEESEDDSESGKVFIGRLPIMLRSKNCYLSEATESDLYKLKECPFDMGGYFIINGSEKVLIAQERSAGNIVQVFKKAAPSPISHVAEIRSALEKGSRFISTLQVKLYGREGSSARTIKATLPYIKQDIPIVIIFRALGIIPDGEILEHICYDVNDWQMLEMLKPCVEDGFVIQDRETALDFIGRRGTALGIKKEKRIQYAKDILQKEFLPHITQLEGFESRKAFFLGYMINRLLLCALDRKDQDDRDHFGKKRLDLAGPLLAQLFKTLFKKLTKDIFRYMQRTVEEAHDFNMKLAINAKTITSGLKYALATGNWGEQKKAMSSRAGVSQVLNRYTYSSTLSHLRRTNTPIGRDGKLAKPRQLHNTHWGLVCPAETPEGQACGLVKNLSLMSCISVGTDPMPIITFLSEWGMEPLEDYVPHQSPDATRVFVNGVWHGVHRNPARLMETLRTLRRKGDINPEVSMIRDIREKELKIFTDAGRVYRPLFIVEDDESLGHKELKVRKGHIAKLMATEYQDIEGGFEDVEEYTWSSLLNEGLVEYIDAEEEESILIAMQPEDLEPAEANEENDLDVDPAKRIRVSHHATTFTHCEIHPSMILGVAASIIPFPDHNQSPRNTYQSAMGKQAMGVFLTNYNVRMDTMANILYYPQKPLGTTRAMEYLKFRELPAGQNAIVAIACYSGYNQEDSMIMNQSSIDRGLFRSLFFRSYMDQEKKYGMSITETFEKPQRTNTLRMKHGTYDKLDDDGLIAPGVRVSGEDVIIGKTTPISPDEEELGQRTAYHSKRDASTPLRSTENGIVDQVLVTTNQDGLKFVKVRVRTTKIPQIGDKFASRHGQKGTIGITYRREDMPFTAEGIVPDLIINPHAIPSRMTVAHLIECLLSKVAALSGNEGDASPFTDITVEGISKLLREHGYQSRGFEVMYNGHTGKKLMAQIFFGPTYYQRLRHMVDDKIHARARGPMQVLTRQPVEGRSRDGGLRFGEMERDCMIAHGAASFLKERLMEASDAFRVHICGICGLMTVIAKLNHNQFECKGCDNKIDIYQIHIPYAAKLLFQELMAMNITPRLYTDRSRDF

Does B1 bind [1]?
Result: binds

Does B2 bind [1]?
Result: binds

What does the source list for B3?
binding result [2]: binds; binding result [1]: binds

Does B4 bind [3]?
Result: binds

Does B5 bind [4]?
Result: binds

Does B5 bind [3]?
Result: binds

Does B6 bind [2]?
Result: binds

Does B7 bind [5]?
Result: binds
